Laboratory results taken from paper PMC10952621.

Assays:
[1] = target: LQTS-associated calmodulin variant D131H (human); assay: ITC; Kv7.1-HB peptide titrated into CaM (~50 uM) in the cell; 50 mM Na-HEPES, 100 mM KCl, 2 mM MgCl2, pH 7.5, 5 mM CaCl2; 25 °C; two-site binding model
[2] = target: LQTS-associated calmodulin variant D95V (human); assay: as above
[3] = target: LQTS-associated calmodulin variant N97I (human); assay: as above
[4] = target: LQTS-associated calmodulin variant D131H (human); assay: ITC; peptide titrated into CaM (~50 uM) in the cell; 50 mM Na-HEPES, 100 mM KCl, 2 mM MgCl2, pH 7.5, 1 mM EGTA (Ca2+-free); 25 °C; one-site binding model
[5] = target: LQTS-associated calmodulin variant D95V (human); assay: as above
[6] = target: LQTS-associated calmodulin variant N97I (human); assay: as above

## Kv7.1-HB(507-536) peptide, helix B of the KCNQ1 C-terminus
[1]
  KD, first binding event: 9.7 nM
  KD, second binding event: 908 nM
  N, first binding event: 0.8 sites
  N, second binding event: 1.4 sites
  dH, first binding event: -14.3 kcal/mol
  dH, second binding event: -15.5 kcal/mol
[2]
  KD, first binding event: 6.9 nM
  KD, second binding event: 725 nM
  N, first binding event: 0.8 sites
  N, second binding event: 0.8 sites
  dH, first binding event: -13.2 kcal/mol
  dH, second binding event: -14.9 kcal/mol
[3]
  KD, first binding event: 4.7 nM
  KD, second binding event: 775 nM
  N, first binding event: 1.1 sites
  N, second binding event: 1.1 sites
  dH, first binding event: -12.9 kcal/mol
  dH, second binding event: -11.5 kcal/mol
[4]
  dH: 3.3 kcal/mol
  stoichiometry N: 0.9 sites
[5]
  Kd: 3900 nM
  dH: 5.8 kcal/mol
  stoichiometry N: 0.9 sites
[6]
  Kd: 2400 nM
  dH: 4.7 kcal/mol
  stoichiometry N: 0.8 sites
